Patent US20070093443
Positions count from the first letter of the chain named. Names may count otherwise.

B1: modified MT-SP1 CB252 (Y146E/K224N) protease domain (protein)
chain: VVGGTDADEGEWPWQVSLHALGQGHICGASLISPNWLVSAAHCYIDDRGFRYSDPTQWTAFLGLHDQSQRSAPGVQERRLKRIISHPFFNDFTFDYDIALLELEKPAEYSSMVRPICLPDASHVFPAGKAIWVTGWGHTQEGGTGALILQKGEIRVINQTTCENLLPQQITPRMMCVGFLSGGVDSCQGDSGGPLSSVEADGRIFQAGVVSWGDGCAQRNNPGVYTRLPLFRDWIKENTGV
B2: modified MT-SP1 CB377 (Y146E/Q175D/K224N) protease domain (protein)
chain: B1 chain with Q169D

Key:
[1] = biological target: Complement component C9 (human)
Chain of Complement component C9 (human) (chain, as listed by the source): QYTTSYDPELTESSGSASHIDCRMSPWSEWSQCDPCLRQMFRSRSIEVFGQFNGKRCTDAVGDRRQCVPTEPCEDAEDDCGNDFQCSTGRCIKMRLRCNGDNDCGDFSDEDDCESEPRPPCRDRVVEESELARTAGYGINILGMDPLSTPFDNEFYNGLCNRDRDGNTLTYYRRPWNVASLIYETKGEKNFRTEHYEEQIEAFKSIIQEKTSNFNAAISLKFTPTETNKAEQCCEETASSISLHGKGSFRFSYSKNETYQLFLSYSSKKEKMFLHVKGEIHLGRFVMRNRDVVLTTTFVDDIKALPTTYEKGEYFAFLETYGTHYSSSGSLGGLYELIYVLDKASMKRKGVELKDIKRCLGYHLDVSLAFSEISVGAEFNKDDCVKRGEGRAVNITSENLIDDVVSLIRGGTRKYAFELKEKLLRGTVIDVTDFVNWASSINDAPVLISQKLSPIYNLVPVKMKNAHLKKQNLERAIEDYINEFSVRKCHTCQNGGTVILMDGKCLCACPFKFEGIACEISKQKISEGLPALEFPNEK

[2] = biological target: T1, Complement C2 (human)
T1 chain: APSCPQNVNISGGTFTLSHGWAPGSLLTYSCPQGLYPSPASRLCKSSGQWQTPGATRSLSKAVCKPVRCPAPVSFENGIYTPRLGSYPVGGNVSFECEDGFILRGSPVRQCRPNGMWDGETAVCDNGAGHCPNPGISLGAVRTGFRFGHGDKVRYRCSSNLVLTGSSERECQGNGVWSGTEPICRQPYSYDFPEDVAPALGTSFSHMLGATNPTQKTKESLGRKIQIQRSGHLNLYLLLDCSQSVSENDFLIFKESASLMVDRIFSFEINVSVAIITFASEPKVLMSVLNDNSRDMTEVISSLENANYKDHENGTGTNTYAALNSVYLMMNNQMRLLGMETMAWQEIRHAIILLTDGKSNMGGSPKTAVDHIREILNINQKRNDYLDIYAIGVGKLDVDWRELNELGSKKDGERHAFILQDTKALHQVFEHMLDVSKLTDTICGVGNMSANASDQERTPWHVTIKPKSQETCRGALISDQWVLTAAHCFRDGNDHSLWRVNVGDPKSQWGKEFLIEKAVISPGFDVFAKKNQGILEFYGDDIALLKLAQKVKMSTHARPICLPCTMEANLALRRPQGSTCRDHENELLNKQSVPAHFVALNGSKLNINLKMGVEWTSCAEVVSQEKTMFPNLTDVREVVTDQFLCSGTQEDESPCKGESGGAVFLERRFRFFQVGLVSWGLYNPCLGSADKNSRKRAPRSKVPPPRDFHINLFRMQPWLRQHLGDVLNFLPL

[3] = biological target: T2, Complement C4 (human)
T2 chain 1: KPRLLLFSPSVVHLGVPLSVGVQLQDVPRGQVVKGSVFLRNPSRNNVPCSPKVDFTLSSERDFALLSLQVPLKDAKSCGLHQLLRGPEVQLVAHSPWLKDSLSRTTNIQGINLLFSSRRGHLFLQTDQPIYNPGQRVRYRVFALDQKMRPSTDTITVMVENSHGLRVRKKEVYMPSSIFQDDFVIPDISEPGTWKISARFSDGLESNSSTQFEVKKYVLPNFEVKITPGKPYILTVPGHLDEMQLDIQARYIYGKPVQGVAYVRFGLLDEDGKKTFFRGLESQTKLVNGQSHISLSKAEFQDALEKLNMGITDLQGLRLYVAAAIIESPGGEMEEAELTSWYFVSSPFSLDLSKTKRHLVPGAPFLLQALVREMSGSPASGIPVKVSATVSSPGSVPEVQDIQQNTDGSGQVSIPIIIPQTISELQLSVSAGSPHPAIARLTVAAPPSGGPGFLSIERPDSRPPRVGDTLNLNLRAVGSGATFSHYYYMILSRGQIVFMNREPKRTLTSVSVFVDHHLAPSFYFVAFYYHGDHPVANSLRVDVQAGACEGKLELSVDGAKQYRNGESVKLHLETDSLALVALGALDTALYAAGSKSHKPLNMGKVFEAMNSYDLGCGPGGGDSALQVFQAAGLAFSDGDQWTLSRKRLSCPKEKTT
T2 chain 2: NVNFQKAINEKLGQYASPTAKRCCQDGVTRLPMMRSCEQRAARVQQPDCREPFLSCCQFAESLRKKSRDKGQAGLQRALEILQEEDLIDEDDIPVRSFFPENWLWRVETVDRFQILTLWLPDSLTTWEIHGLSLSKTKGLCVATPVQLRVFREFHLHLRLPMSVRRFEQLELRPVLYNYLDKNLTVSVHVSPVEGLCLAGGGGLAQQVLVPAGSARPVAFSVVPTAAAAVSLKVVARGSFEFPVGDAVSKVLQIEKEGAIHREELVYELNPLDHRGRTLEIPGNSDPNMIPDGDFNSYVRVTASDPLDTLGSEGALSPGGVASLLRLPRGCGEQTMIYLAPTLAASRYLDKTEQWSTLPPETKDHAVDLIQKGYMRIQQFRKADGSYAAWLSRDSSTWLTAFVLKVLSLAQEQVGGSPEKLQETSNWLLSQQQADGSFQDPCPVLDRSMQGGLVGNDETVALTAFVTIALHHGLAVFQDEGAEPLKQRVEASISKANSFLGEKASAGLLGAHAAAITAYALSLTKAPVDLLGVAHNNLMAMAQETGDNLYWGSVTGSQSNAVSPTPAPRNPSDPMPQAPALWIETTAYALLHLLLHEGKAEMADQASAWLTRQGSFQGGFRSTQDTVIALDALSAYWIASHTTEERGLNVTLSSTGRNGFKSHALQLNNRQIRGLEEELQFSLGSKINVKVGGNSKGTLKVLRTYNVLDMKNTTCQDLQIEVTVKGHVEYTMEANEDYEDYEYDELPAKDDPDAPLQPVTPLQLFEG
T2 chain 3: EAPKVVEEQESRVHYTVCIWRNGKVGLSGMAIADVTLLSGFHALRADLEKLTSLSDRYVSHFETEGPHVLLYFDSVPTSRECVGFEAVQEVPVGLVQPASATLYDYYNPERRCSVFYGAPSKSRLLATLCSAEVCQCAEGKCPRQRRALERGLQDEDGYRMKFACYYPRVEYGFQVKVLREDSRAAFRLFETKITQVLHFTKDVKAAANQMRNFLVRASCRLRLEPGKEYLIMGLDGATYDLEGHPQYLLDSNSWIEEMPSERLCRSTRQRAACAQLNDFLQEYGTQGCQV

[4] = biological target: Complement component C7 (human)
Chain of Complement component C7 (human) (chain, as listed by the source): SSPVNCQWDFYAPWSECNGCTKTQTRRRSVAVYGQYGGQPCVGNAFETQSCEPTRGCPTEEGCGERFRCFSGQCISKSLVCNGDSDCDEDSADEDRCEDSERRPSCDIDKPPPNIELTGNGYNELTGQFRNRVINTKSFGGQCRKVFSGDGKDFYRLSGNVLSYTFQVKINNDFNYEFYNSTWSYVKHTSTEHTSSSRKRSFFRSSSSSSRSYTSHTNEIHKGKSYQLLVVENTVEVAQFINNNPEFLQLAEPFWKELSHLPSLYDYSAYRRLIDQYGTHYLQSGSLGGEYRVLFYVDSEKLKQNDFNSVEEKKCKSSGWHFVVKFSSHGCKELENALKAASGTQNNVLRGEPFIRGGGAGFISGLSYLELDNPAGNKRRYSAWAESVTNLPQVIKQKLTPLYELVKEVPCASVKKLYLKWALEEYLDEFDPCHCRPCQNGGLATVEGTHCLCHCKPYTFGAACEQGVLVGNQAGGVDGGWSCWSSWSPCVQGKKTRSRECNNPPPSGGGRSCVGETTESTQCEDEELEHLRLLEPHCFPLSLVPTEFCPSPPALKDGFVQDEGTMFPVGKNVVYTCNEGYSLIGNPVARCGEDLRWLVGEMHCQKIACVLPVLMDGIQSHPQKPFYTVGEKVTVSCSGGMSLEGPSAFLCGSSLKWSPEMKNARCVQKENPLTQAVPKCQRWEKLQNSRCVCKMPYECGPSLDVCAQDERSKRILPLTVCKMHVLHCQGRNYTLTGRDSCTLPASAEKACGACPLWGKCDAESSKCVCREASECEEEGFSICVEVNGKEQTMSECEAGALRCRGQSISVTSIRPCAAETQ

[5] = biological target: Complement C1q (human)
[6] = biological target: Complement component C6 (human)
Chain of Complement component C6 (human) (chain, as listed by the source): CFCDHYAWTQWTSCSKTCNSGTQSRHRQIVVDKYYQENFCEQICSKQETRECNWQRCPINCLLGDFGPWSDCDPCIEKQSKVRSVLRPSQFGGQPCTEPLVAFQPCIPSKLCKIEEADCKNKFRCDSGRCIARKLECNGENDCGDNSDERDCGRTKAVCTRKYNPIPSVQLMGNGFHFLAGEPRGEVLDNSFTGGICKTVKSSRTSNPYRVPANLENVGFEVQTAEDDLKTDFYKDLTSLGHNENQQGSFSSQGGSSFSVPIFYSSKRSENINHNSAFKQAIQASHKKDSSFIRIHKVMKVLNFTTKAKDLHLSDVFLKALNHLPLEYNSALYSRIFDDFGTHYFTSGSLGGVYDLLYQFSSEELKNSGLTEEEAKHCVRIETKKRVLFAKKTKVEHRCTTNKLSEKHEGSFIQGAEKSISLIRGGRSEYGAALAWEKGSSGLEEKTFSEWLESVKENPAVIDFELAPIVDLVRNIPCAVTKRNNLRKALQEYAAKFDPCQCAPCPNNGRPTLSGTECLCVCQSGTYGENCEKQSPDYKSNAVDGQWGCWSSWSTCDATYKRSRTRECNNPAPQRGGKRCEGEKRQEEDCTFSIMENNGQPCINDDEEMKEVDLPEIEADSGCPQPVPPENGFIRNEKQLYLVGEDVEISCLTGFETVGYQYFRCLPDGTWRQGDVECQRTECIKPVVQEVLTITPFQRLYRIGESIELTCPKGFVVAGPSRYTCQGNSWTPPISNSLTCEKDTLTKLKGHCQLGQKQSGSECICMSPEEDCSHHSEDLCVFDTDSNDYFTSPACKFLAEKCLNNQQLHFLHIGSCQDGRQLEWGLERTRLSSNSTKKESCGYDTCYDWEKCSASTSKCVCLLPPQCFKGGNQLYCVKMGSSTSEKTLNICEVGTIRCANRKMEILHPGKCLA

[7] = biological target: Complement C5 (human)
Chain of Complement C5 (human) (chain, as listed by the source, chain 1 of 2): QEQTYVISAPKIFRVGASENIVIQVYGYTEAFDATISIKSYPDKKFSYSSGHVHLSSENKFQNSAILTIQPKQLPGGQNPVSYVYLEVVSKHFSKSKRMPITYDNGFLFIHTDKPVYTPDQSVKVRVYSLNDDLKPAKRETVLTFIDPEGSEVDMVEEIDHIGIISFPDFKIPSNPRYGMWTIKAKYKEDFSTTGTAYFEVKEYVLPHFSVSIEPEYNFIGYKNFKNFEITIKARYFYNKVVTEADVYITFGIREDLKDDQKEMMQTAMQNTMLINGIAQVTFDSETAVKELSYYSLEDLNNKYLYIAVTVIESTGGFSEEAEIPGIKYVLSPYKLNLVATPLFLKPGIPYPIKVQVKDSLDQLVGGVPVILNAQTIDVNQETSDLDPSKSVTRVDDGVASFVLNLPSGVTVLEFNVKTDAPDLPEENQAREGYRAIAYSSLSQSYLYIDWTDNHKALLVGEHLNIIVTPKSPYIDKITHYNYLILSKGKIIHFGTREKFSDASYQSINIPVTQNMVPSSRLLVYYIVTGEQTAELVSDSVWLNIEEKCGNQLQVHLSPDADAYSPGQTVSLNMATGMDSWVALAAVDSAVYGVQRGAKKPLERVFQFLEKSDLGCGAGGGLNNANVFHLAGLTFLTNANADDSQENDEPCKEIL
Chain of Complement C5 (human) (chain, as listed by the source, chain 2 of 2): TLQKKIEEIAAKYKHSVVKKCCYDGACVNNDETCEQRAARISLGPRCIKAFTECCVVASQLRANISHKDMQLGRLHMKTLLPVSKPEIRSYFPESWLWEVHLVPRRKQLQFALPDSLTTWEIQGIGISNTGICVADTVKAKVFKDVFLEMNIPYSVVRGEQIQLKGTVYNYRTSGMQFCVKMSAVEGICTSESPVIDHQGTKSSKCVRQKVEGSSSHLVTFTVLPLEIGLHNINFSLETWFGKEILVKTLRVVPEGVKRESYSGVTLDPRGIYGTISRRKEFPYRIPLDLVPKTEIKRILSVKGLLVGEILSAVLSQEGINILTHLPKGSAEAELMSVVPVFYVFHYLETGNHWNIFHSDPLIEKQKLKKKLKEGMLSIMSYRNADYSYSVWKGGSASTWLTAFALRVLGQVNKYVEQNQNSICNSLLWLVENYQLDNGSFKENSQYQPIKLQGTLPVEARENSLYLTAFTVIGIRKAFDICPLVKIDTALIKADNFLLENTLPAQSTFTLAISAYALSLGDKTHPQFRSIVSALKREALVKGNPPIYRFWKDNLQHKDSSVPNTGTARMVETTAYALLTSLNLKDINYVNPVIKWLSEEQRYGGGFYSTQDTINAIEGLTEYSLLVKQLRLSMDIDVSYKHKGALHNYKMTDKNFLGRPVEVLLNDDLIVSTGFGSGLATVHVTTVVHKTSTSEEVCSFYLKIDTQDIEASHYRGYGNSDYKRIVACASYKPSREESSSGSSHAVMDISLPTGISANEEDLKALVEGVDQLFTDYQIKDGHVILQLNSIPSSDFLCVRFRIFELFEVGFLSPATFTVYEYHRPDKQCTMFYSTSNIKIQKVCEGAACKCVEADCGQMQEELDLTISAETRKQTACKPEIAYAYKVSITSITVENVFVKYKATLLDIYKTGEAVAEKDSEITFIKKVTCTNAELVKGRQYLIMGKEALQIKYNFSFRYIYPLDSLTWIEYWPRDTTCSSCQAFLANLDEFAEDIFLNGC

Protein | hemolysis (OD415) by protease-preincubated purified complement protein added back to the corresponding depleted sera [1] | cleavage in 90% human plasma by Western blot [2] | cleavage of purified C2 by 100 nM protease, SDS-PAGE and Coomassie [2] | fraction C5b-9 generated, Total Complement System Screen (classical and MBL pathways), 1 uM protease in human plasma [2] | hemolysis (OD415) by protease-preincubated purified complement protein added back to the corresponding depleted sera [2] | hemolysis (OD415) by protease-preincubated purified complement protein added back to the corresponding depleted sera [3] | hemolysis (OD415) by protease-preincubated purified complement protein added back to the corresponding depleted sera [4] | hemolysis (OD415) by protease-preincubated purified complement protein added back to the corresponding depleted sera [5] | hemolysis (OD415) by protease-preincubated purified complement protein added back to the corresponding depleted sera [6] | hemolysis (OD415) by protease-preincubated purified complement protein added back to the corresponding depleted sera [7]
B1 | showed no decreased hemolysis as compared to normal sera or the no protease control | cleaved C2 in human plasma in a dose-dependent manner | C2 was almost completely degraded to yield cleavage products of about 70 kD and 23 kD corresponding to C2a and C2b, respectively | the fraction C5b-9 generated upon complement activation induced by the classical and MBL pathways was almost completely inhibited | resulted in an inhibition of hemolysis as assessed by a reduced OD415 absorbance to levels comparable to the depleted sera control | showed no decreased hemolysis as compared to normal sera or the no protease control | showed no decreased hemolysis as compared to normal sera or the no protease control | showed no decreased hemolysis as compared to normal sera or the no protease control | showed no decreased hemolysis as compared to normal sera or the no protease control | showed no decreased hemolysis as compared to normal sera or the no protease control
B2 | showed no decreased hemolysis as compared to normal sera or the no protease control | cleaved C2 in human plasma in a dose-dependent manner | C2 was almost completely degraded to yield cleavage products of about 70 kD and 23 kD corresponding to C2a and C2b, respectively | the fraction C5b-9 generated upon complement activation induced by the classical and MBL pathways was almost completely inhibited | resulted in an inhibition of hemolysis as assessed by a reduced OD415 absorbance to levels comparable to the depleted sera control | showed no decreased hemolysis as compared to normal sera or the no protease control | showed no decreased hemolysis as compared to normal sera or the no protease control | showed no decreased hemolysis as compared to normal sera or the no protease control | showed no decreased hemolysis as compared to normal sera or the no protease control | showed no decreased hemolysis as compared to normal sera or the no protease control
